B1: (dT)70 (ssDNA)
DNA: TTTTTTTTTTTTTTTTTTTTTTTTTTTTTTTTTTTTTTTTTTTTTTTTTTTTTTTTTTTTTTTTTTTTTT

Tests used:
[1] = biological target: T1, Pf-SSB-MDCC (Plasmodium falciparum, UniProt Q8I415 77-284); experiment: fluorescence titration; 100 mM NaCl; stoichiometric, 1 tetramer per (dT)70; ~4-fold fluorescence increase; Titration and stopped-flow: 20 mM Tris-Cl pH 8, 0.1 mM EDTA, 100 mM NaCl, 1 mM TCEP, 25 C; ITC same with 200 mM NaCl; Rad51 filaments: 25 mM Tris-Cl pH 7.7, 1 mM TCEP, 5% glycerol, 10 mM MgCl2, 50 mM NaCl, 3 mM ATP, ATP regeneration; settings: protein: recombinant; tags: MDCC on Cys93; chain copies: 4; single strand
[2] = biological target: T1, Pf-SSB-MDCC; experiment: ITC; 200 mM NaCl; stoichiometric, 2 (dT)35 per tetramer; dHobs -71.8±0.2 kcal/mol; Titration and stopped-flow: 20 mM Tris-Cl pH 8, 0.1 mM EDTA, 100 mM NaCl, 1 mM TCEP, 25 C; ITC same with 200 mM NaCl; Rad51 filaments: 25 mM Tris-Cl pH 7.7, 1 mM TCEP, 5% glycerol, 10 mM MgCl2, 50 mM NaCl, 3 mM ATP, ATP regeneration; settings: protein: recombinant; tags: MDCC on Cys93; chain copies: 4; single strand; 2 copies per tetramer
[3] = biological target: Pf-SSB (Plasmodium falciparum, UniProt Q8I415 77-284); experiment: ITC; 200 mM NaCl; stoichiometric, 2 (dT)35 per tetramer; dHobs -73.1±0.2 kcal/mol; Titration and stopped-flow: 20 mM Tris-Cl pH 8, 0.1 mM EDTA, 100 mM NaCl, 1 mM TCEP, 25 C; ITC same with 200 mM NaCl; Rad51 filaments: 25 mM Tris-Cl pH 7.7, 1 mM TCEP, 5% glycerol, 10 mM MgCl2, 50 mM NaCl, 3 mM ATP, ATP regeneration; settings: protein: recombinant; chain copies: 4; single strand; 2 copies per tetramer

| Binder | binding result [1] | binding result [2] | binding result [3] |
| --- | --- | --- | --- |
| B1 | binds | – | – |
| TTTTTTTTTTTTTTTTTTTTTTTTTTTTTTTTTTT (ssDNA) [(dT)35] | – | binds | binds |

From paper PMC4945038, “Rad51 Nucleoprotein Filament Disassembly Captured Using Fluorescent Plasmodium falciparum SSB as a Reporter for Single-Stranded DNA”
